Patent US20240002495A1 (MITSUBISHI TANABE PHARMA, published 2024)
Residue numbers refer to the chain shown, from its start. Values belong to the binder of their own block, whether it stands above or below them.

Key:
[1] = biological target: T1, biotinylated 6His tag-AviTag-linked mature human IL-33 (residues 112 to 270) (human, UniProt O95760 112-270, biotin on the AviTag portion (BirA)); test: SPR, IL-33 on chip, Fab supernatant as analyte
T1 construct: made in E. coli; also called biotinylated human IL-33 protein
T1 sequence: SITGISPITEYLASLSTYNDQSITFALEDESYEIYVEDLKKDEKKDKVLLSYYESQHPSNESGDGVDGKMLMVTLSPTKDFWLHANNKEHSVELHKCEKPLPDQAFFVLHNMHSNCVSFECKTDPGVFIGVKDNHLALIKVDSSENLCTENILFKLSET
Protocol: (§1) The library after the enrichment was used to construct a library of Escherichia coli secreting and expressing Fab. The culture supernatants of several hundreds of clones of Escherichia coli were subjected to measurement of dissociation rate constant (koff) by surface plasmon resonance (SPR) (ProteOn XPR36, available from Bio-Rad Laboratories, Inc.). The biotinylated human IL-33 protein (4 μg/mL) and cynomolgus monkey IL-33 protein (4 μg/mL) were loaded as ligands on a sensor chip (NLC sensor chip, available from Bio-Rad Laboratories, Inc.), to immobilize the human IL-33 protein at an amount equivalent to 1300 to 1600 RU, and the cynomolgus monkeyIL-33 protein at an amount equivalent to 1100 to 1500 RU. The culture supernatant of Escherichia coli was then loaded thereon as analyte to obtain a sensorgram with association phase of one minute and dissociation phase of 10 to 30 minutes. The sensorgram was subjected to interspot correction and blank correction using an SPR data analysis program (ProteOn Manager v3.1.0, available from Bio-Rad Laboratories, Inc.), and then values of koff were determined by off-rate analysis of Langmuir model.

[2] = biological target: T2, 6His-AviTag-linked cynomolgus monkey IL-33 (residues 112 to 269) (cynomolgus monkey, UniProt O95760 112-269 (human entry), biotin on the AviTag portion (BirA) in the SPR of Example 7; used without biotinylation in Example 10); test: SPR, IL-33 on chip, Fab supernatant as analyte
T2 construct: GenBank EHH57404 printed; also called cynomolgus monkey IL-33 protein; mature cynomolgus monkey IL-33
T2 chain: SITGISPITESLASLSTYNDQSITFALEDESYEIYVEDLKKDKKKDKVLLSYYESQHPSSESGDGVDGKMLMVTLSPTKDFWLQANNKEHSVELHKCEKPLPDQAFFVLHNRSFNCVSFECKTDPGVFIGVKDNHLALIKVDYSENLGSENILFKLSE
Protocol: as §1

- Human IL-33 Binding Amount (RU) [1]: 165 RU
- koff [1]: 1e-05 s⁻¹
- Cynomolgus Monkey IL-33 Binding Amount (RU) [2]: 173 RU
- koff [2]: 1.05e-05 s⁻¹
B3: A28-1G07 (Fab) (Fab, V domains shown)
VH: EVQLLESGGGLVQPGGSLRLSCAASGFTFSNYYMHWVRQAPGKGLEWVSSISARSSYRYYADSVKGRFTISRDNSKNTLYLQMNSLRAEDTAVYYCARLATRHSAFDIWGQGTLVTVSS
VL: QSVLTQPPSASGTPGQRVTISCSGSSSNIGHNAVSWYQQLPGTAPKLLIYASNMRRLGVPDRFSGSKSGTSASLAISGLRSEDEADYYCGAWDDSQKVVVFGGGTKLTVL
notes: Fab secreted by E. coli, tested as culture supernatant; also called V24

- Human IL-33 Binding Amount (RU) [1]: 364 RU
- koff [1]: 1e-05 s⁻¹
- Cynomolgus Monkey IL-33 Binding Amount (RU) [2]: 363 RU
- koff [2]: 1e-05 s⁻¹
B6: A26-2B01 (Fab) (Fab, V domains shown)
VH: B3 VH with R58I, S104N
VL: B3 VL with H31N, S35N, G90A, V98A, V99W
notes: Fab secreted by E. coli, tested as culture supernatant; also called V20

- Human IL-33 Binding Amount (RU) [1]: 123 RU
- koff [1]: 1e-05 s⁻¹
- Cynomolgus Monkey IL-33 Binding Amount (RU) [2]: 134 RU
- koff [2]: 1e-05 s⁻¹
B7: A28-2C06 (Fab) (Fab, V domains shown)
VH: B3 VH with R58I, D62G, A100G, H103R, S104V
VL: B3 VL with H31R, S35N, R56G, L57M, G90S
notes: Fab secreted by E. coli, tested as culture supernatant; also called V25

- Human IL-33 Binding Amount (RU) [1]: 135 RU
- koff [1]: 1.34e-05 s⁻¹
- Cynomolgus Monkey IL-33 Binding Amount (RU) [2]: 143 RU
- koff [2]: 2.02e-05 s⁻¹
B8: A25-3G05 (Fab) (Fab, V domains shown)
VH: B3 VH with N31H, R54L, R58I, K65R, H103R, S104D
VL: B3 VL with H31N, S35N, R56G, V99F
notes: Fab secreted by E. coli, tested as culture supernatant; also called V16

- Human IL-33 Binding Amount (RU) [1]: 289 RU
- koff [1]: 1e-05 s⁻¹
- Cynomolgus Monkey IL-33 Binding Amount (RU) [2]: 258 RU
- koff [2]: 1e-05 s⁻¹
B10: A28-2F01 (Fab) (Fab, V domains shown)
VH: B3 VH with A53S, Y57H, R58Q, D62G, A100G, T101L, S104D
VL: B3 VL with S35W, L57M, G90A, V98A
notes: Fab secreted by E. coli, tested as culture supernatant; also called V26

- Human IL-33 Binding Amount (RU) [1]: 294 RU
- koff [1]: 1e-05 s⁻¹
- Cynomolgus Monkey IL-33 Binding Amount (RU) [2]: 304 RU
- koff [2]: 1.14e-05 s⁻¹
B11: A27-1C06 (Fab) (Fab, V domains shown)
VH: B3 VH with R58I
VL: B3 VL with H31N, S35N, V98A, V99F
notes: Fab secreted by E. coli, tested as culture supernatant; also called V22

Second part, the binder before the results:

B1: A25-2E04 (Fab) (Fab, V domains shown)
VH: B3 VH with R58I, H103N, S104N
VL: B3 VL with S26C, H31R, S35N, R56V, L57I, G90E, V98G
notes: Fab secreted by E. coli, tested as culture supernatant; also called V11
- Human IL-33 Binding Amount (RU) [1]: 195 RU
- koff [1]: 1.27e-05 s⁻¹
- Cynomolgus Monkey IL-33 Binding Amount (RU) [2]: 199 RU
- koff [2]: 1e-05 s⁻¹

B2: A26-2A05 (Fab) (Fab, V domains shown)
VH: B3 VH with R58I, S104G
VL: B3 VL with H31N, S35N, L57M, G90A, V98A, V99F
notes: Fab secreted by E. coli, tested as culture supernatant; also called V19
- Human IL-33 Binding Amount (RU) [1]: 153 RU
- koff [1]: 1e-05 s⁻¹
- Cynomolgus Monkey IL-33 Binding Amount (RU) [2]: 147 RU
- koff [2]: 1e-05 s⁻¹

B4: A25-2H11 (Fab) (Fab, V domains shown)
VH: B3 VH with R58I, H103N, S104N
VL: B3 VL with H31S, R56G, L57S, G90A
notes: Fab secreted by E. coli, tested as culture supernatant; also called V14
- Human IL-33 Binding Amount (RU) [1]: 534 RU
- koff [1]: 1.22e-05 s⁻¹
- Cynomolgus Monkey IL-33 Binding Amount (RU) [2]: 492 RU
- koff [2]: 2.57e-05 s⁻¹

B5: A28-2G07 (Fab) (Fab, V domains shown)
VH: B3 VH with N31S, R58I, H103R, S104I
VL: B3 VL with H31R, S35N, L57P, G90S, V98A, V99G
notes: Fab secreted by E. coli, tested as culture supernatant; also called V27
- Human IL-33 Binding Amount (RU) [1]: 289 RU
- koff [1]: 1e-05 s⁻¹
- Cynomolgus Monkey IL-33 Binding Amount (RU) [2]: 259 RU
- koff [2]: 1.14e-05 s⁻¹

B9: A25-3H04 (Fab) (Fab, V domains shown)
VH: B3 VH with N31R, R54Q, Y57H, R58I, K65E, H103Q, S104N
VL: B3 VL with H31R, S35N, L57S, G90S
notes: Fab secreted by E. coli, tested as culture supernatant; also called V17
- Human IL-33 Binding Amount (RU) [1]: 0.62 RU
- koff [1]: 1e-05 s⁻¹
- Cynomolgus Monkey IL-33 Binding Amount (RU) [2]: 179 RU
- koff [2]: 1e-05 s⁻¹

B12: A27-1A06 (Fab) (Fab, V domains shown)
VH: B3 VH with S104L
VL: B3 VL with H31N, S35N, L57P, G90A, V99F
notes: Fab secreted by E. coli, tested as culture supernatant; also called V21
- Human IL-33 Binding Amount (RU) [1]: 306 RU
- koff [1]: 1e-05 s⁻¹
- Cynomolgus Monkey IL-33 Binding Amount (RU) [2]: 320 RU
- koff [2]: 1e-05 s⁻¹

B13: A26-1F02 (Fab) (Fab, V domains shown)
VH: B3 VH with R58L, S104V
VL: B3 VL with H31N, S35N, L57P, G90E, V98A
notes: Fab secreted by E. coli, tested as culture supernatant; also called V18
- Human IL-33 Binding Amount (RU) [1]: 96 RU
- koff [1]: 1e-05 s⁻¹
- Cynomolgus Monkey IL-33 Binding Amount (RU) [2]: 100 RU
- koff [2]: 1e-05 s⁻¹

B14: A28-2H06 (Fab) (Fab, V domains shown)
VH: B3 VH with R54L, H103R, S104V
VL: B3 VL with H31N, S35N, G90A, V98A, V99L
notes: Fab secreted by E. coli, tested as culture supernatant; also called V28
- Human IL-33 Binding Amount (RU) [1]: 349 RU
- koff [1]: 1e-05 s⁻¹
- Cynomolgus Monkey IL-33 Binding Amount (RU) [2]: 317 RU
- koff [2]: 1e-05 s⁻¹

B15: A28-1C08 (Fab) (Fab, V domains shown)
VH: B3 VH with N31R, R58I, H103R, S104D
VL: B3 VL with H31R, G90W, V98A
notes: Fab secreted by E. coli, tested as culture supernatant; also called V23
- Human IL-33 Binding Amount (RU) [1]: 156 RU
- koff [1]: 1e-05 s⁻¹
- Cynomolgus Monkey IL-33 Binding Amount (RU) [2]: 144 RU
- koff [2]: 1e-05 s⁻¹
